Data published in patent publication US20220204580A1 (AstraZeneca / MedImmune, published 2022).
Numbered stars: 1 amine (or outer) side, 2 acyl side, 3 side chain; on linkers, the order of the positions; unused ones are H or OH. Bridge positions count the residues as written; N and C are the ends. Side chains are listed from the residue outwards. Ends that are not written are not given here. * marks the point of attachment. C20 diacid = O=C(O)CCCCCCCCCCCCCCCCCCC(=O)*; γGlu = O=C(O)[C@H](CCC(=O)[*:2])N[*:1]; AEEA = NCCOCCOCC(=O)O

T1: human amylin receptor (calcitonin receptor co-expressed with receptor activity modifying protein, RAMP3) (human, UniProt P30988 25-474; O60896 24-148)
T1 sequence (looked up) 1: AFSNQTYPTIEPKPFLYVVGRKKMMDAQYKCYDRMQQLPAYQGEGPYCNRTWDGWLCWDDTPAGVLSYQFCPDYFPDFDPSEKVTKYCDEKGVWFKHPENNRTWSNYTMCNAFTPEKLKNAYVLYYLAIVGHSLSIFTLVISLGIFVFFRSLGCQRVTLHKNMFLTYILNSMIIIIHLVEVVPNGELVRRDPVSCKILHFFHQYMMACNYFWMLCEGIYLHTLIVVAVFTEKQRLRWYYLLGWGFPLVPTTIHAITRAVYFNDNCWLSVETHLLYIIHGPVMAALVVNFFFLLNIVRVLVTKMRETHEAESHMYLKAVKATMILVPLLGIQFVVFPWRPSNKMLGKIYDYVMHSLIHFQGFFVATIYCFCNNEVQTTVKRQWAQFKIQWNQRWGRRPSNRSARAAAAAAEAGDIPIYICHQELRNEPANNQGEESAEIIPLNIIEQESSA
T1 sequence (looked up) 2: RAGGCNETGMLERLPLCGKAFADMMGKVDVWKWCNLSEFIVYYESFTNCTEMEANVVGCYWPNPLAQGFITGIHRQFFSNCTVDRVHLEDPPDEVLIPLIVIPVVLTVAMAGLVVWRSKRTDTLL

T2: human calcitonin receptor (human, UniProt P30988 25-474)
T2 sequence (looked up): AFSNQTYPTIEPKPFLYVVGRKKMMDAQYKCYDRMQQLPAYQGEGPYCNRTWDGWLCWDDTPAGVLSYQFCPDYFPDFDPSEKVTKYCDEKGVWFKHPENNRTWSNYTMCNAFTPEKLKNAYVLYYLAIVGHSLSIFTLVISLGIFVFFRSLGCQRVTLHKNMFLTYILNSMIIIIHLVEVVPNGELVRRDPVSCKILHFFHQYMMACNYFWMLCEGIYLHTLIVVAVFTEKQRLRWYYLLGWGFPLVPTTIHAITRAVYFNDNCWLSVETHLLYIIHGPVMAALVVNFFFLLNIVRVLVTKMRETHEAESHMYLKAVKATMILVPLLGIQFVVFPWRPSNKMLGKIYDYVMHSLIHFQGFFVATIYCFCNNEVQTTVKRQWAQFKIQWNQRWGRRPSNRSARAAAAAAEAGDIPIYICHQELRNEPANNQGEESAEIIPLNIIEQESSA

T3: rat amylin receptor (calcitonin receptor co-expressed with receptor activity modifying protein, RAMP3) (rat, UniProt P32214 25-516; Q9JJ73 23-147)
T3 sequence (looked up) 1: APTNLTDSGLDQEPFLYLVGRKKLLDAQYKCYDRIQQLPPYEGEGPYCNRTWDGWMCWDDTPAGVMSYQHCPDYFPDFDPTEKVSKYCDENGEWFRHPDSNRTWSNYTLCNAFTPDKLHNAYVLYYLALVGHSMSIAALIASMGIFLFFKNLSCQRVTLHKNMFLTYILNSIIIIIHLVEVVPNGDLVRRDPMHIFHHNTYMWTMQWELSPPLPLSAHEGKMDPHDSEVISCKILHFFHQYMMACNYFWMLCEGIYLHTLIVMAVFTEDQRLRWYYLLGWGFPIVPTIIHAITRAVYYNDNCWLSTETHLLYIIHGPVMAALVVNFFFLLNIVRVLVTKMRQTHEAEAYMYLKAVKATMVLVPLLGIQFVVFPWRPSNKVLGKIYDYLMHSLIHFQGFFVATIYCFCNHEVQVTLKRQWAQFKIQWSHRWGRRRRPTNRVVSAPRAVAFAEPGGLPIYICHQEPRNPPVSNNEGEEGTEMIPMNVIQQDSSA
T3 sequence (looked up) 2: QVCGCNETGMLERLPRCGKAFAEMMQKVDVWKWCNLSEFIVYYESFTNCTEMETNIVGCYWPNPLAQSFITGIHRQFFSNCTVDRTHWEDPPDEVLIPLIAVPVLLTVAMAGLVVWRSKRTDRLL

T4: rat calcitonin receptor (rat, UniProt P32214 25-516)
T4 sequence (looked up): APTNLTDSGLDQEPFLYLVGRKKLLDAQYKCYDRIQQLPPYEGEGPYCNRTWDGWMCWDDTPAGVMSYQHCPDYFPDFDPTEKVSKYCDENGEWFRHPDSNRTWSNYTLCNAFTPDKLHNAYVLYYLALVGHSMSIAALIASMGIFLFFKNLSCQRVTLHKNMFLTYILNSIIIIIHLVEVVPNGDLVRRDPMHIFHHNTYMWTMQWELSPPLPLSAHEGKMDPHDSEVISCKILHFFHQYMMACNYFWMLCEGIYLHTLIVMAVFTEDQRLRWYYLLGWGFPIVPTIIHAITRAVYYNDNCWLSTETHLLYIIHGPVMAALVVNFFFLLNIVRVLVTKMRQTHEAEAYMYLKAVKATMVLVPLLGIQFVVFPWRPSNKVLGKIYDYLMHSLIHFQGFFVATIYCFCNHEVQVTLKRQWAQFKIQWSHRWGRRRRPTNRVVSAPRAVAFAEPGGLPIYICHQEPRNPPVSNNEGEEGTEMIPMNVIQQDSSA


Tests used:
Test in all cases: cell-based or functional assay
[1] = target: T1, human amylin receptor (calcitonin …)
[2] = target: T2, human calcitonin receptor
[3] = target: T3, rat amylin receptor (calcitonin …)
[4] = target: T4, rat calcitonin receptor

Binder | EC50 (cAMP production) [1] [nM] | Ratio (EC50 hCTR / EC50 hAMYR3) [1] | EC50 (cAMP production) [2] [nM] | EC50 (cAMP production) [3] [nM] | EC50 (cAMP production) [4] [nM]
{C20 diacid-γGlu-AEEA-AEEA}-KCNTATCATQRLANFLVHSSNNFGPILPPTNVGSNTY-NH2 (disulfide 2-7) [Peptide 113 (SEQ ID NO: 113)] | 1.17 | 16 | 18.5 | 0.0326 | 10.4
K([γGlu-γGlu-C20 diacid])CNTATCATQRLANFLVHSSNNFGPILPPTNVGSRTY-NH2 (disulfide 2-7; N-terminus assumed; SMILES CC[C@H](C)[C@H](NC(=O)[C@@H]1CCCN1C(=O)CNC(=O)[C@H](Cc1ccccc1)NC(=O)[C@H](CC(N)=O)NC(=O)[C@H](CC(N)=O)NC(=O)[C@H](CO)NC(=O)[C@H](CO)NC(=O)[C@H](Cc1c[nH]cn1)NC(=O)[C@@H](NC(=O)[C@H](CC(C)C)NC(=O)[C@H](Cc1ccccc1)NC(=O)[C@H](CC(N)=O)NC(=O)[C@H](C)NC(=O)[C@H](CC(C)C)NC(=O)[C@H](CCCNC(=N)N)NC(=O)[C@H](CCC(N)=O)NC(=O)[C@@H](NC(=O)[C@H](C)NC(=O)[C@@H]1CSSC[C@H](NC(=O)[C@@H](N)CCCCNC(=O)CC[C@H](NC(=O)CC[C@H](NC(=O)CCCCCCCCCCCCCCCCCCC(=O)O)C(=O)O)C(=O)O)C(=O)N[C@@H](CC(N)=O)C(=O)N[C@@H]([C@@H](C)O)C(=O)N[C@@H](C)C(=O)N[C@@H]([C@@H](C)O)C(=O)N1)[C@@H](C)O)C(C)C)C(=O)N[C@@H](CC(C)C)C(=O)N1CCC[C@H]1C(=O)N1CCC[C@H]1C(=O)N[C@H](C(=O)N[C@@H](CC(N)=O)C(=O)N[C@H](C(=O)NCC(=O)N[C@@H](CO)C(=O)N[C@@H](CCCNC(=N)N)C(=O)N[C@H](C(=O)N[C@@H](Cc1ccc(O)cc1)C(N)=O)[C@@H](C)O)C(C)C)[C@@H](C)O) [Peptide 114 (SEQ ID NO: 114)] | 1.32 | 12 | 15.8 | 0.0122 | 4.87
K([γGlu-γGlu-C20 diacid])CNTATCATQRLANFLVHSSPNFPAILSPTNVGSNTY-NH2 (disulfide 2-7; N-terminus assumed; SMILES CC[C@H](C)[C@H](NC(=O)[C@H](C)NC(=O)[C@@H]1CCCN1C(=O)[C@H](Cc1ccccc1)NC(=O)[C@H](CC(N)=O)NC(=O)[C@@H]1CCCN1C(=O)[C@H](CO)NC(=O)[C@H](CO)NC(=O)[C@H](Cc1c[nH]cn1)NC(=O)[C@@H](NC(=O)[C@H](CC(C)C)NC(=O)[C@H](Cc1ccccc1)NC(=O)[C@H](CC(N)=O)NC(=O)[C@H](C)NC(=O)[C@H](CC(C)C)NC(=O)[C@H](CCCNC(=N)N)NC(=O)[C@H](CCC(N)=O)NC(=O)[C@@H](NC(=O)[C@H](C)NC(=O)[C@@H]1CSSC[C@H](NC(=O)[C@@H](N)CCCCNC(=O)CC[C@H](NC(=O)CC[C@H](NC(=O)CCCCCCCCCCCCCCCCCCC(=O)O)C(=O)O)C(=O)O)C(=O)N[C@@H](CC(N)=O)C(=O)N[C@@H]([C@@H](C)O)C(=O)N[C@@H](C)C(=O)N[C@@H]([C@@H](C)O)C(=O)N1)[C@@H](C)O)C(C)C)C(=O)N[C@@H](CC(C)C)C(=O)N[C@@H](CO)C(=O)N1CCC[C@H]1C(=O)N[C@H](C(=O)N[C@@H](CC(N)=O)C(=O)N[C@H](C(=O)NCC(=O)N[C@@H](CO)C(=O)N[C@@H](CC(N)=O)C(=O)N[C@H](C(=O)N[C@@H](Cc1ccc(O)cc1)C(N)=O)[C@@H](C)O)C(C)C)[C@@H](C)O) [Peptide 115 (SEQ ID NO: 115)] | 0.703 | 11 | 7.65 | 0.0226 | 22.6
K([γGlu-γGlu-C20 diacid])CNTATCATQRLAEFLRHSSNNFGPILPPTNVGSNTY-NH2 (disulfide 2-7; N-terminus assumed; SMILES CC[C@H](C)[C@H](NC(=O)[C@@H]1CCCN1C(=O)CNC(=O)[C@H](Cc1ccccc1)NC(=O)[C@H](CC(N)=O)NC(=O)[C@H](CC(N)=O)NC(=O)[C@H](CO)NC(=O)[C@H](CO)NC(=O)[C@H](Cc1c[nH]cn1)NC(=O)[C@H](CCCNC(=N)N)NC(=O)[C@H](CC(C)C)NC(=O)[C@H](Cc1ccccc1)NC(=O)[C@H](CCC(=O)O)NC(=O)[C@H](C)NC(=O)[C@H](CC(C)C)NC(=O)[C@H](CCCNC(=N)N)NC(=O)[C@H](CCC(N)=O)NC(=O)[C@@H](NC(=O)[C@H](C)NC(=O)[C@@H]1CSSC[C@H](NC(=O)[C@@H](N)CCCCNC(=O)CC[C@H](NC(=O)CC[C@H](NC(=O)CCCCCCCCCCCCCCCCCCC(=O)O)C(=O)O)C(=O)O)C(=O)N[C@@H](CC(N)=O)C(=O)N[C@@H]([C@@H](C)O)C(=O)N[C@@H](C)C(=O)N[C@@H]([C@@H](C)O)C(=O)N1)[C@@H](C)O)C(=O)N[C@@H](CC(C)C)C(=O)N1CCC[C@H]1C(=O)N1CCC[C@H]1C(=O)N[C@H](C(=O)N[C@@H](CC(N)=O)C(=O)N[C@H](C(=O)NCC(=O)N[C@@H](CO)C(=O)N[C@@H](CC(N)=O)C(=O)N[C@H](C(=O)N[C@@H](Cc1ccc(O)cc1)C(N)=O)[C@@H](C)O)C(C)C)[C@@H](C)O) [Peptide 116 (SEQ ID NO: 116)] | 1.21 | 8 | 9.56 | 0.0237 | 9.05
